Measurements taken from patent publication US20030200558A1 (MONSANTO, published 2003).
Numbering of substitutions follows the chain as printed.

B1: β-conglycinin β subunit mutant 39335-70 (other)
chain: MDYKDDDDKLKVREDENNPFYLRSSNSFQTLFENQNGRIRLIQRFNKRSPQIENLRDYRIVQFQSKPNTIILPHHADADFIIIILSGRAIITIVNNDDRDSYNIHPGDAQRIPAGTTYYIINPHDHQNLKIIKIAIPVNKPGRYDDFFLSSTQAQQSYLQGFSHNILETSFHSEFEEINRVLLGEEEEQRQQEGVIVELSKEQIRQLSRRAKSSSRKTISSEDEPFNLRSRNPIYSNNFGKFFEITPEKTPQIRDLDIFLSSVDINEGALLLPHFNSKAIVILVINEGDANIELVGIKEQQQKQKQEEEPLEVQRYRAELSEDDIIVIPAAYPFVVNATSNLNIIAIGINAENNQRNFLAGEKDNVVRQIERQVQELAFPGSAQDVERLLKKQRESYFVDAQPQQKEEGSKGRKGPFPSILGALY
B2: β-conglycinin β subunit mutant 39335-31 (other)
chain: MDYKDDDDKLKVREDENNPFYLRSSNSFQTLFENQNGRIRLIQRFNKRSPQLENLRDYRIVQFQSKPNTIILPHHADADFIIIILSGRAIITIVNNDDRDSYNIHPGDAIRIPAGTTYYIINPHDHQNLKIIKIAIPVNKPGRYDDFFLSSTQAQQSYLQGFSHNILETSFHSEFEEINRVLLGEEEEQRQQEGVIVELSKEQIRQLSRRAKSSSRKTISSEDEPFNLRSRNPIYSNNFGKIFEITPEKTPQLRDLDIFISSVDINEGALILPHFNSKAIVILVINEGDANIEIVGIKEQQQKQKQEEEPLEVQRYRAELSEDDIIVIPAAYPFVINATSNLNFLAFGINAENNQRNFLAGEKDNVVRQIERQVQELAFPGSAQDVERLLKKQRESYFVDAQPQQKEEGSKGRKGPFPSILGALY
B3: β-conglycinin β subunit mutant 39335-46 (other)
chain: B1 chain with I52L, F63I, I253L, L260I
B4: β-conglycinin β subunit mutant 39335-51 (other)
chain: B1 chain with I52L, F63I, Q110I, I253L, L260I, L294I
B5: β-conglycinin β subunit mutant 39335-38 (other)
chain: B2 chain with I91L, I93L, I110Q, I242F, I260L, I294L, I325V, I326F, I336V
B6: β-conglycinin β subunit mutant 39335-49 (other)
chain: B1 chain with I52L, I91L, I93L, I253L, L260I
B7: β-conglycinin β subunit mutant 39335-36 (other)
chain: B2 chain with I91L, I93L, I242F, I325V, I326F
B8: β-conglycinin β subunit mutant 39335-57 (other)
chain: B2 chain with F63I, I242F, I271L, I326F, L345I
B9: β-conglycinin β subunit mutant 39335-56 (other)
chain: B2 chain with F63I, I271L, L345I, F398I
B10: β-conglycinin β subunit mutant 39335-66 (other)
chain: B2 chain with I91L, I93L, I110Q, I260L, I271L, I294L, I325V, I326F, I336V, F398I
B11: β-conglycinin β subunit mutant 39335-42 (other)
chain: B2 chain with F63I, I91L, I93L, I260L, I271L, I294L, I336V
B12: β-conglycinin β subunit mutant 39335-64 (other)
chain: B2 chain with F63I, I242F, L272I
B13: β-conglycinin β subunit mutant 39335-43 (other)
chain: B1 chain with I52L, I91L, I93L, Q110I, F242I, I253L

Biological target: the molecule itself
Assay: sucrose gradient sedimentation, anti-FLAG western (self-assembly)

Protein | binding result
B1 | no binding
B2 | no binding
B3 | no binding
B4 | no binding
B5 | no binding
B6 | no binding
B7 | no binding
B8 | no binding
B9 | no binding
B10 | no binding
B11 | no binding
B12 | no binding
B13 | no binding
